{"source": "patent US20130344070A1", "key": {"[1]": {"biological_target": "human CCR2 (CC-Chemokine Receptor 2) (human) (UniProt P41597)", "sequence (P41597 whole entry)": "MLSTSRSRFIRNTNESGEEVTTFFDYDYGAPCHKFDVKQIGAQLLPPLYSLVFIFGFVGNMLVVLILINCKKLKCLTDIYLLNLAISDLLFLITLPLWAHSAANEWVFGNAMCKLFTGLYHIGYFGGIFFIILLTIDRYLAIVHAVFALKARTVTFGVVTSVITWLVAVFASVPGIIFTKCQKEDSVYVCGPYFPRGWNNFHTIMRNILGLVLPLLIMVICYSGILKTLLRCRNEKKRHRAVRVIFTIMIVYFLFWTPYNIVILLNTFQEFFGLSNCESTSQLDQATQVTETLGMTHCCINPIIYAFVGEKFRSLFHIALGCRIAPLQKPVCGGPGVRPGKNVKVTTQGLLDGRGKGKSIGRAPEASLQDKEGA", "test": "cell-based or functional assay"}, "murine CCR2 (murine)": {"biological_target": "murine CCR2 (murine) (UniProt P51683)", "sequence (P51683 whole entry)": "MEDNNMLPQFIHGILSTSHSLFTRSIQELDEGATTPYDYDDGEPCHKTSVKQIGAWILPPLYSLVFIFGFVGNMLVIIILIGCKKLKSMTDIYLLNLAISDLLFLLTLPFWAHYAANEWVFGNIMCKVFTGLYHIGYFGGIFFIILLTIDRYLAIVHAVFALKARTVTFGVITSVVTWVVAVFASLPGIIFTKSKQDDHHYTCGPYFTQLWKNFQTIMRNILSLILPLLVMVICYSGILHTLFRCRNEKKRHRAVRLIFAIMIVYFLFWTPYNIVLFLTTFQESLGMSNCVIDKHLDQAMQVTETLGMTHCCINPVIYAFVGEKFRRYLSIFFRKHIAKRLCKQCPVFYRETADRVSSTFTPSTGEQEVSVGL", "test": "cell-based or functional assay"}}, "data": [{"substance": "human MCP-1 (PROSPEC # CHM-271) (from UniProt P13500 24-99) (ligand)", "values": [{"measurement": "EC50 of MCP-1, MCP-1-induced calcium flux, THP-1 cells", "setting": "[1]", "value": 3.3, "unit": "nM"}, {"measurement": "EC50 of MCP-1, MCP-1-induced calcium flux, primary human monocytes", "setting": "[1]", "value": 3.79, "unit": "nM"}, {"measurement": "EC50 of MCP-1, MCP-1-induced chemotaxis, THP-1 cells", "setting": "[1]", "value": 0.8, "unit": "nM"}, {"measurement": "EC50 of MCP-1, MCP-1-induced chemotaxis, primary human monocytes", "setting": "[1]", "value": 0.389, "unit": "nM"}]}, {"substance": "mMCP-1 (mouse MCP-1) (from UniProt P10148 24-148) (ligand)", "values": [{"measurement": "EC50 of mMCP-1, mMCP-1-induced chemotaxis, WEHI 274.1 cells", "setting": "murine CCR2 (murine)", "value": 0.12, "unit": "nM"}]}]}
